The source of these data is publication PMC12499436, “Human Schlafen 14 Cleavage of Short Double‐Stranded RNAs Underpins its Antiviral Activity” (Advanced Science, 2025).

Series [1] deals with the molecule itself. Kind of series: SEC; recombinant strep-strep-SUMO tagged SLFN14 in solution with 150 mM NaCl; gel-filtration standards.
Series [2] deals with the molecule itself. Kind of series: cryo-EM structure; apo SLFN14^mut, single-particle analysis, 2.84 Å.
The next series has as its target T1, SLFN11 (WT) (Homo sapiens, UniProt Q7Z7L1 1-901).
T1 sequence: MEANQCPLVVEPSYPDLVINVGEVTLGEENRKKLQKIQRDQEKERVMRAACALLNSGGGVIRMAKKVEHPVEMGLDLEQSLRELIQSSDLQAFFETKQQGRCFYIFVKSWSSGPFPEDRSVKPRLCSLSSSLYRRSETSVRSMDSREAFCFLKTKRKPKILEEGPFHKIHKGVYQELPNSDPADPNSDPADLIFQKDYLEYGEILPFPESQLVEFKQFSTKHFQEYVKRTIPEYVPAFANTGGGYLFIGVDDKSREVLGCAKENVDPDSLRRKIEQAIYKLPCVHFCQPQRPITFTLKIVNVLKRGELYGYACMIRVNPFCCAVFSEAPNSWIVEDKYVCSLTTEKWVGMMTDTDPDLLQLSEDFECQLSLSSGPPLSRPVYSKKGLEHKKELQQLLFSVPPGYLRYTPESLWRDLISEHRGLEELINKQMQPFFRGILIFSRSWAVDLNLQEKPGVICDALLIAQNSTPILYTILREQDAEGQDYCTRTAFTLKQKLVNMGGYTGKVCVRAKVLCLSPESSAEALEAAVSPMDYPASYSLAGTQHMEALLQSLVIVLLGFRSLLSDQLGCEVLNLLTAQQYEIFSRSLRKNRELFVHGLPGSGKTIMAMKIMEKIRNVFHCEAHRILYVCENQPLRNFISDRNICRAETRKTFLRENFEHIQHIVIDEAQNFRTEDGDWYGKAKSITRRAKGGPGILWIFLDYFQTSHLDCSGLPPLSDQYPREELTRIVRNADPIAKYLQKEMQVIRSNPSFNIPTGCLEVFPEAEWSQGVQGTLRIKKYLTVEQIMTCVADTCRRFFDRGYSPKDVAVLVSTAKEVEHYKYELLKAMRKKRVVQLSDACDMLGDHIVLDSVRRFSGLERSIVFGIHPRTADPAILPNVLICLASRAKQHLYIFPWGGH
The experiment in a line: BLI; steady state; kdis 4.8e-4 /s; BLI: PBS, 0.02% P20, 0.1% BSA, 25 C; EMSA: 25 mM HEPES pH 7.5, 50 mM NaCl, 8% glycerol, 2 mM MgCl2, 1 mM DTT, 4 C, 50 nM ssDNA; cryo-EM: RNA in 40 mM Tris-HCl pH 8.0, 20 mM KCl, 4 mM MgCl2, 2 mM DTT, protein:RNA 1:1.2, 4 C overnight. Conditions: protein: recombinant; tags: Strep-II-SUMO (N-term); chain copies: 2. (In BLI a coated tip is dipped into the sample, and binding shifts an interference pattern.)

For a further series, the target named is T2, SLFN14 (WT) (Homo sapiens, UniProt P0C7P3 1-912).
T2 sequence: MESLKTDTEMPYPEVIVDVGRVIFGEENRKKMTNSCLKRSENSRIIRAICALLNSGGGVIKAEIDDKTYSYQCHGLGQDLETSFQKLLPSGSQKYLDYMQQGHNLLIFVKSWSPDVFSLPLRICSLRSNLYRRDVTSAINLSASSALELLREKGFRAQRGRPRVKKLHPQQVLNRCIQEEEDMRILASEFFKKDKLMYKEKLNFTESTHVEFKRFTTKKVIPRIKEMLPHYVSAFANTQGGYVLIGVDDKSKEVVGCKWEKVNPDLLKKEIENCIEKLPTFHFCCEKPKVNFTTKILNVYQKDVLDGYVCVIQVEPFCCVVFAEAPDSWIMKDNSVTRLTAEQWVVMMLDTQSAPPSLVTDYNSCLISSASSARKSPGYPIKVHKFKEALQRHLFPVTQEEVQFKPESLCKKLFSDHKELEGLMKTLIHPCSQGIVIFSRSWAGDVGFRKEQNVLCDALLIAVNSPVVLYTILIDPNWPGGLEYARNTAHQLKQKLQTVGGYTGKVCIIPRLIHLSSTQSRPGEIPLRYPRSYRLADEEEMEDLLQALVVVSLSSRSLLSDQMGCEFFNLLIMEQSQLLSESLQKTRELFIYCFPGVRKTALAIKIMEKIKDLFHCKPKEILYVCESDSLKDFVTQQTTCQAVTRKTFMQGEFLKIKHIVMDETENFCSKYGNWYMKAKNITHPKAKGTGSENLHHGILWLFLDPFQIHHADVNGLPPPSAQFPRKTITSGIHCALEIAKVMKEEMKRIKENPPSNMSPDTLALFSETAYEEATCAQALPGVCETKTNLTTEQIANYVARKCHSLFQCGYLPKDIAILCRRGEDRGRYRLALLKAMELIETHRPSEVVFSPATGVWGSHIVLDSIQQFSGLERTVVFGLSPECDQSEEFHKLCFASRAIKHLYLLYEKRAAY
Kind of series: BLI; steady state; kdis 1.3e-3 /s; BLI: PBS, 0.02% P20, 0.1% BSA, 25 C; EMSA: 25 mM HEPES pH 7.5, 50 mM NaCl, 8% glycerol, 2 mM MgCl2, 1 mM DTT, 4 C, 50 nM ssDNA; cryo-EM: RNA in 40 mM Tris-HCl pH 8.0, 20 mM KCl, 4 mM MgCl2, 2 mM DTT, protein:RNA 1:1.2, 4 C overnight. Conditions: protein: recombinant; tags: Strep-Strep-SUMO (N-term); chain copies: 2.

Another series addresses T3, SLFN14mut (Homo sapiens, UniProt P0C7P3 1-912, E211A;C365S;C775S;C808S).
T3 sequence: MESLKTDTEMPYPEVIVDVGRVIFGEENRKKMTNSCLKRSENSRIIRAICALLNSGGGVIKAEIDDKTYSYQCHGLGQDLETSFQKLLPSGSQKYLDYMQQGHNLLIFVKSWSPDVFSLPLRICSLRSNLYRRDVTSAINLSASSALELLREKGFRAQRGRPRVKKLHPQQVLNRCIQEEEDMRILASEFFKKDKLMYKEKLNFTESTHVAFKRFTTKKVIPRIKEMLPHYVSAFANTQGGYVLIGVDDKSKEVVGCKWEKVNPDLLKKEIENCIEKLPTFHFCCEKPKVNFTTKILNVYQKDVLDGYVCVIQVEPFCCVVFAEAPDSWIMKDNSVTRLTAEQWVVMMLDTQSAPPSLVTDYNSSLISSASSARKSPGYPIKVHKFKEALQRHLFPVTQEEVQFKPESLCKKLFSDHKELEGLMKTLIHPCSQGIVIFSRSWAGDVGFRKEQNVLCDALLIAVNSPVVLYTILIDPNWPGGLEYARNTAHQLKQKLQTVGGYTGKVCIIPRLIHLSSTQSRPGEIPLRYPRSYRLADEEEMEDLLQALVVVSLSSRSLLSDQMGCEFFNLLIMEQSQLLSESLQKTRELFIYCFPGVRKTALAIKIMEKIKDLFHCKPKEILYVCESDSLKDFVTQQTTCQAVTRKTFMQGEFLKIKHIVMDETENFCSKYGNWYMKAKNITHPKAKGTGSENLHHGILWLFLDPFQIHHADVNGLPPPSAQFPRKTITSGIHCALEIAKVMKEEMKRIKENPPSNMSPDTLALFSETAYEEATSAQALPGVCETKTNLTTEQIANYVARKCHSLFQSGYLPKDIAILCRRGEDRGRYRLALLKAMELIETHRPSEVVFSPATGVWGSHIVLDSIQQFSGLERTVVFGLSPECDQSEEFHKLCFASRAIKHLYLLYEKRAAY
Kind of series: cryo-EM structure; 2.88 A; Zn2+ (2 per dimer); no active-site ion density; BLI: PBS, 0.02% P20, 0.1% BSA, 25 C; EMSA: 25 mM HEPES pH 7.5, 50 mM NaCl, 8% glycerol, 2 mM MgCl2, 1 mM DTT, 4 C, 50 nM ssDNA; cryo-EM: RNA in 40 mM Tris-HCl pH 8.0, 20 mM KCl, 4 mM MgCl2, 2 mM DTT, protein:RNA 1:1.2, 4 C overnight. Conditions: protein: recombinant; tags: 6xHis-SUMO (N-term); chain copies: 2; hairpin, 12-bp stem, 7-nt loop.

B1: human SLFN14, wild type (strep-strep-SUMO tagged) (enzyme, UniProt P0C7P3 1-912, looked up)
chain: MESLKTDTEMPYPEVIVDVGRVIFGEENRKKMTNSCLKRSENSRIIRAICALLNSGGGVIKAEIDDKTYSYQCHGLGQDLETSFQKLLPSGSQKYLDYMQQGHNLLIFVKSWSPDVFSLPLRICSLRSNLYRRDVTSAINLSASSALELLREKGFRAQRGRPRVKKLHPQQVLNRCIQEEEDMRILASEFFKKDKLMYKEKLNFTESTHVEFKRFTTKKVIPRIKEMLPHYVSAFANTQGGYVLIGVDDKSKEVVGCKWEKVNPDLLKKEIENCIEKLPTFHFCCEKPKVNFTTKILNVYQKDVLDGYVCVIQVEPFCCVVFAEAPDSWIMKDNSVTRLTAEQWVVMMLDTQSAPPSLVTDYNSCLISSASSARKSPGYPIKVHKFKEALQRHLFPVTQEEVQFKPESLCKKLFSDHKELEGLMKTLIHPCSQGIVIFSRSWAGDVGFRKEQNVLCDALLIAVNSPVVLYTILIDPNWPGGLEYARNTAHQLKQKLQTVGGYTGKVCIIPRLIHLSSTQSRPGEIPLRYPRSYRLADEEEMEDLLQALVVVSLSSRSLLSDQMGCEFFNLLIMEQSQLLSESLQKTRELFIYCFPGVRKTALAIKIMEKIKDLFHCKPKEILYVCESDSLKDFVTQQTTCQAVTRKTFMQGEFLKIKHIVMDETENFCSKYGNWYMKAKNITHPKAKGTGSENLHHGILWLFLDPFQIHHADVNGLPPPSAQFPRKTITSGIHCALEIAKVMKEEMKRIKENPPSNMSPDTLALFSETAYEEATCAQALPGVCETKTNLTTEQIANYVARKCHSLFQCGYLPKDIAILCRRGEDRGRYRLALLKAMELIETHRPSEVVFSPATGVWGSHIVLDSIQQFSGLERTVVFGLSPECDQSEEFHKLCFASRAIKHLYLLYEKRAAY
notes: human Schlafen 14 (SLFN14), Gene ID 342618, wild type, codon-optimised gene; also called WT-SLFN14; Schlafen 14; source: HEK293F, transiently transfected, purified (Strep-Tactin, SEC); not shown: strep-strep, N-terminal, kept; SUMO, N-terminal, kept
As usually defined, the stoichiometry N is a count of units in the complex or per binding partner. B1: the “stoichiometry N” value in series [1] came out at 2.

B2: SLFN14 E211A-C365S-C775S-C808S (SLFN14^mut) (enzyme, human, UniProt P0C7P3 1-912, looked up)
chain: MESLKTDTEMPYPEVIVDVGRVIFGEENRKKMTNSCLKRSENSRIIRAICALLNSGGGVIKAEIDDKTYSYQCHGLGQDLETSFQKLLPSGSQKYLDYMQQGHNLLIFVKSWSPDVFSLPLRICSLRSNLYRRDVTSAINLSASSALELLREKGFRAQRGRPRVKKLHPQQVLNRCIQEEEDMRILASEFFKKDKLMYKEKLNFTESTHVAFKRFTTKKVIPRIKEMLPHYVSAFANTQGGYVLIGVDDKSKEVVGCKWEKVNPDLLKKEIENCIEKLPTFHFCCEKPKVNFTTKILNVYQKDVLDGYVCVIQVEPFCCVVFAEAPDSWIMKDNSVTRLTAEQWVVMMLDTQSAPPSLVTDYNSSLISSASSARKSPGYPIKVHKFKEALQRHLFPVTQEEVQFKPESLCKKLFSDHKELEGLMKTLIHPCSQGIVIFSRSWAGDVGFRKEQNVLCDALLIAVNSPVVLYTILIDPNWPGGLEYARNTAHQLKQKLQTVGGYTGKVCIIPRLIHLSSTQSRPGEIPLRYPRSYRLADEEEMEDLLQALVVVSLSSRSLLSDQMGCEFFNLLIMEQSQLLSESLQKTRELFIYCFPGVRKTALAIKIMEKIKDLFHCKPKEILYVCESDSLKDFVTQQTTCQAVTRKTFMQGEFLKIKHIVMDETENFCSKYGNWYMKAKNITHPKAKGTGSENLHHGILWLFLDPFQIHHADVNGLPPPSAQFPRKTITSGIHCALEIAKVMKEEMKRIKENPPSNMSPDTLALFSETAYEEATSAQALPGVCETKTNLTTEQIANYVARKCHSLFQSGYLPKDIAILCRRGEDRGRYRLALLKAMELIETHRPSEVVFSPATGVWGSHIVLDSIQQFSGLERTVVFGLSPECDQSEEFHKLCFASRAIKHLYLLYEKRAAY
notes: human Schlafen 14 (SLFN14), Gene ID 342618, full length, with four mutations introduced for cryo-EM; No tag cleavage is described in the purification; also called apo SLFN14; SLFN14 apoenzyme; source: Sf21 (baculovirus, pFastBac1), purified (Ni-NTA, heparin, SEC)
Turning to B2, the binding result in series [2] was “binds”.

B3: 50-nt ssDNA (BLI) (ssDNA)
DNA: AATTGGTCGTAGCAAGCTCTAGCACCGCTTAAACGCACGTACGCGCTGTC
The Kd is the constant that tells how readily two partners part at equilibrium. As for B3, the dissociation constant Kd came to 37 nM with SLFN11 (WT) and 9 nM with SLFN14 (WT).

B4: short hairpin RNA (hRNA) (structured_RNA)
RNA: GCAUCAGCUACCUAAAGUUCAGGUAGCUGAUG
Take B4: the binding result with SLFN14mut is listed as “binds”.
